Legend:
[1] = target: T1, Human GPA33 on GPA33+ colorectal cancer cell lines (Colo 205, LS 174T, SW 1222) (human, UniProt Q99795 22-319); assay: flow cytometry, LS 174T cells
T1 construct: Endogenous GPA33 on human colorectal cancer cell lines; also called surface human GPA33; GPA33+ tumor cell lines
T1 sequence: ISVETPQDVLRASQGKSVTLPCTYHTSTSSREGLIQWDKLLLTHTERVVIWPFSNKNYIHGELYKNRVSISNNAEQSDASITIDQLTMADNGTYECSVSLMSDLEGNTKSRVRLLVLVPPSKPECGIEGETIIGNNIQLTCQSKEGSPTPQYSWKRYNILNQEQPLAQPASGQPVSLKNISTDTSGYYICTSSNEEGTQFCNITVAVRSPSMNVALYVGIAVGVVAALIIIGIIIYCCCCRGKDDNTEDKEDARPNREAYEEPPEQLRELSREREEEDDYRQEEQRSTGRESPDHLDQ

[2] = target: T1, Human GPA33 on GPA33+ colorectal cancer …; assay: flow cytometry, SW 1222 cells
[3] = target: T1, Human GPA33 on GPA33+ colorectal cancer …; assay: flow cytometry, Colo 205 cells; Colo 205 cells
[4] = target: T1, Human GPA33 on GPA33+ colorectal cancer …; assay: FACS binding to LS174T cells (GPA33+)
[5] = target: T1, Human GPA33 on GPA33+ colorectal cancer …; assay: FACS binding to SW1222 cells (GPA33+)
[6] = target: T1, Human GPA33 on GPA33+ colorectal cancer …; assay: FACS binding to Colo205 cells (GPA33+)
[7] = target: T2, Human GPA33 (recombinant protein, Novoprotein) (human, UniProt Q99795 22-235); assay: SPR (Biacore), human GPA33 immobilized on CM5 chip, two-state fit
T2 construct: Bought recombinant protein immobilized on a CM5 chip; also called GPA33 antigen; tumor antigen GPA33
T2 sequence: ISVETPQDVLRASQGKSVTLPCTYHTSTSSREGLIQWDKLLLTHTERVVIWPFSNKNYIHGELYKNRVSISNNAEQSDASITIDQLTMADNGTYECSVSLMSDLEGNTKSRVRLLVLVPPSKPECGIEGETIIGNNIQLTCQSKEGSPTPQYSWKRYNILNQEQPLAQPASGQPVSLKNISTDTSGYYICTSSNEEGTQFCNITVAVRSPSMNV
Procedure, shortened: (§1)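 GPA33 immobilized on CM5 chip; five 2-fold dilutions of huA33 IgG1 or huA33 bispecifics from 20 nM injected. Kinetics measured at 25 °C for huA33, at both 25 °C and 37 °C for bispecifics; sensorgrams fitted to a two-state binding model.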

[8] = target: T2, Human GPA33 (recombinant protein, …); assay: SPR (Biacore), human GPA33 immobilized on CM5 chip, two-state fit, ka1
Procedure, shortened: as §1

[9] = target: T2, Human GPA33 (recombinant protein, …); assay: SPR (Biacore), human GPA33 immobilized on CM5 chip, two-state fit, kd1
Procedure, shortened: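 The off-rate (kd1) came from surface plasmon resonance, with sensorgrams fitted to a two-state binding model to derive the kinetic parameters. Recombinant human GPA33 from Novoprotein was immobilised on a CM5 chip in a Biacore T100. Antibodies were flowed over at five concentrations, made as 2-fold serial dilutions starting at 20 nM. The parent IgG1 was run at 25° C, and the bispecific formats at both 25° C and 37° C.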

[10] = target: T1, Human GPA33 on GPA33+ colorectal cancer …; assay: FACS binding to SW1222 cells (GPA33+); the text prints 1.78 nM for this pair
[11] = target: T2, Human GPA33 (recombinant protein, …); assay: SPR (Biacore), human GPA33 immobilised on the chip; KD relative to that of TC170
Procedure, shortened: (§2)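 On a Biacore system, antibodies at five concentrations (2-fold serial dilutions, highest 20 nM) were passed over recombinant human GPA33 (Novoprotein) immobilised on a CM5 sensor chip. Rate constants and the dissociation constant (KD) came from kinetic fitting of the surface plasmon resonance sensorgrams. Each KD is expressed relative to the KD of a reference molecule, as a ratio.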

[12] = target: T1, Human GPA33 on GPA33+ colorectal cancer …; assay: FACS titration on SW1222 cells, geometric mean MFI (the text prints 1.78 nM and calls it IC50) [Cont.]
[13] = target: T1, Human GPA33 on GPA33+ colorectal cancer …; assay: FACS titration on SW1222 cells, geometric mean MFI (same value as in FIG. 4A; the text prints 1.78 nM) [contd.]
[14] = target: T1, Human GPA33 on GPA33+ colorectal cancer …; assay: FACS binding to LS174T cells (GPA33+); reference row
[15] = target: T1, Human GPA33 on GPA33+ colorectal cancer …; assay: FACS binding to SW1222 cells (GPA33+); reference row
[16] = target: T1, Human GPA33 on GPA33+ colorectal cancer …; assay: FACS binding to Colo205 cells (GPA33+); reference row
[17] = target: T2, Human GPA33 (recombinant protein, …); assay: SPR (Biacore), human GPA33 immobilised on the chip; reference row
Procedure, shortened: as §2

[18] = target: T1, Human GPA33 on GPA33+ colorectal cancer …; assay: FACS titration on Colo205 cells, geometric mean MFI (the text prints 0.74 nM and calls it IC50)
[19] = target: T1, Human GPA33 on GPA33+ colorectal cancer …; assay: FACS titration on Colo205 cells, geometric mean MFI (same value as in FIG. 4A; the text prints 0.74 nM)

B1: TC171 (bispecific antibody)
chain: DIQMTQSPSSLSASVGDRVTITCKASQNVRTVVAWYQQKPGKAPKTLIYLASNRHTGVPSRFSGSGSGTEFTLTISNLQPEDFATYYCLQHWSYPLTFGSGTKLEVKRGGGGSGGGGSGGGGSGGGGSGGGGSGGGGSEVQLVESGGGLVKPGGSLRLSCAASGFAFSTYDMSWVRQAPGKGLEWVSTISSGGSYTYYADSVKGRFTISRDNAKNSLYLQMNSLRAEDTAVYYCAPTTVVPFAYWGQGTLVTVSAGGGGSGGGGSGGGGSGGGGSHVQLVESGGGLVQPGGSLRLSCAASGFSLTDYGVHWVRQAPGKGLEWLGVIWSGGGTAYNTALISRFTISRDNSKNTLYLQMNSLRAEDTAVYYCARRGSYPYNYFDAWGCGTLVTVSSGGGGSGGGGSGGGGSGGGGSGGGGSGGGGSQAVVTQEPSLTVSPGGTVTLTCGSSTGAVTASNYANWVQQKPGQCPRGLIGGHNNRPPGVPARFSGSLLGGKAALTLLGAQPEDEAEYYCALWYSDHWVIGGGTKLTVLGTPLGDTTHTSGKPLDGEYFTLQIRGRERFEMFRELNEALELKDAQAGKEPGGSGGAPHHHHHH
notes: As TC170, with the other VH/VL orientation of the anti-GPA33 scFv; Carries the p53 SADA (tetramerization) domain; also called GPA33xDOTA SADA
[1]
  IC50: 0.56 nM
[2]
  IC50: 1.78 nM
[3]
  EC50: 1.04 nM
[4]
  fold change of binding EC50 (relative to TC170, lower is better): 1.81
[5]
  fold change of binding EC50 (relative to TC170, lower is better): 1.07
[6]
  fold change of binding EC50 (relative to TC170, lower is better): 1.41
[7]
  Kd: 0.023 nM
  ka2: 0.00663 s⁻¹
  kd2: 0.000628 s⁻¹
[8]
  kon: 3.34e+06 M⁻¹ s⁻¹
[9]
  koff: 0.000886 s⁻¹
[10]
  EC50: 1.77 nM
[11]
  Fold change of KD (relative to TC170, lower is better): 1.5
[12]
  EC50: 0.77 nM
[13]
  EC50: 0.77 nM

B2: TC170 (bispecific antibody)
chain: EVQLVESGGGLVKPGGSLRLSCAASGFAFSTYDMSWVRQAPGKGLEWVSTISSGGSYTYYADSVKGRFTISRDNAKNSLYLQMNSLRAEDTAVYYCAPTTVVPFAYWGQGTLVTVSAGGGGSGGGGSGGGGSGGGGSGGGGSGGGGSDIQMTQSPSSLSASVGDRVTITCKASQNVRTVVAWYQQKPGKAPKTLIYLASNRHTGVPSRFSGSGSGTEFTLTISNLQPEDFATYYCLQHWSYPLTFGSGTKLEVKRGGGGSGGGGSGGGGSGGGGSHVQLVESGGGLVQPGGSLRLSCAASGFSLTDYGVHWVRQAPGKGLEWLGVIWSGGGTAYNTALISRFTISRDNSKNTLYLQMNSLRAEDTAVYYCARRGSYPYNYFDAWGCGTLVTVSSGGGGSGGGGSGGGGSGGGGSGGGGSGGGGSQAVVTQEPSLTVSPGGTVTLTCGSSTGAVTASNYANWVQQKPGQCPRGLIGGHNNRPPGVPARFSGSLLGGKAALTLLGAQPEDEAEYYCALWYSDHWVIGGGTKLTVLGTPLGDTTHTSGKPLDGEYFTLQIRGRERFEMFRELNEALELKDAQAGKEPGGSGGAPHHHHHH
notes: Single chain: anti-GPA33 scFv, anti-DOTA (C825) scFv, p53 SADA domain; The copy number 4 comes from the p53 tetramerization domain; the self-assembling and disassembling state depends on concentration; also called GPA33 SADA (TC170); GPA33xDOTA SADA
[1]
  IC50: 0.31 nM
[2]
  IC50: 1.65 nM
[3]
  EC50: 0.74 nM
[14]
  fold change of binding EC50 (relative to TC170, lower is better): 1
[15]
  fold change of binding EC50 (relative to TC170, lower is better): 1
[16]
  fold change of binding EC50 (relative to TC170, lower is better): 1
[7]
  Kd: 0.0158 nM
  ka2: 0.00646 s⁻¹
  kd2: 0.000538 s⁻¹
[8]
  kon: 3.54e+06 M⁻¹ s⁻¹
[9]
  koff: 0.000728 s⁻¹
[17]
  Fold change of KD (relative to TC170, lower is better): 1
[18]
  EC50: 0.73 nM
[19]
  EC50: 0.73 nM

Reference: patent US20240026037A1 (Memorial Sloan Kettering, published 2024)
